The results in this text go back to patent US20240090511A1.

In this test the target is N. viridula BBMV proteins. Description: competition pull-down: biotinylated peptide against ABP5-(AP)5-mCherry on BBMV.

MDWPRRN (biotinylated (position not given)) [biotinylated synthetic peptide (ABP5)] gave a competitor peptide concentration at which binding was outcompeted of more than 10 µM.
